For experiment [1], the target named is T1, TGF-β1 (Homo sapiens, UniProt P01137). Description: sequestering from PRP by peptide-conjugated microspheres.
For experiment [2], the target named is T1, TGF-β1. Description: 125I-TGF-β1 sequestering in 10% serum by peptide-conjugated microspheres.
For experiment [3], the target named is T1, TGF-β1. As to the kind of experiment: SPR. In general terms: In SPR one partner is held on a chip, and binding of the other changes the refractive index at the surface.
The target of experiment [4] is T1, TGF-β1. As to the kind of experiment: SPR. The source holds these as a separate data set.

No end group written: not given here.

T1 sequence (P01137 279-390): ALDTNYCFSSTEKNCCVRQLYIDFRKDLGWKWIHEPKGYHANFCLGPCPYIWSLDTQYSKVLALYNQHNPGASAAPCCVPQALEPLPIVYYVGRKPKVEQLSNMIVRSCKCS

For orientation: Kd means the free concentration of one partner at which half of the binding sites on the other are occupied at equilibrium, for simple one-to-one binding. The low end stands for a tighter complex, the high end for a looser complex. As for CIAEIDLIPRDRPF (also: conjugated to PEG microspheres), the results for the Kd in experiment [1] and in experiment [2] were about 215 nM and about 211 nM, respectively.

Regarding CLIDFRIPADREVPI [Scrambled RIP], the Kd in experiment [3] came out at 745 nM; in experiment [4], 765 nM.

Regarding CIAEIDLIPRDRPF, the figures for the Kd in experiment [3] and in experiment [4] were 183 nM and 106 nM, respectively.

With CIAEIDLIPRDRPFV [RIP], the results for the Kd in experiment [3] and in experiment [4] were 98.3 nM and 60 nM, respectively.

The values are drawn from publication PMC9254699 (2021).
